Source: patent publication US11795488B2, “Methods for enzymatic peptide ligation” (NANYANG TECHNOLOGICAL UNIVERSITY, priority 2016, dated 2023)
Changes are numbered by the printed parent chain. Read-outs that look alike come from different tables or passages of the source.

Tests used:
[1] = Proteolytic and protein ligation activity of AEP_C13C04; type: biochemical
From the text: Based on the prediction of the sequence alignment, AEP_C13C04 contained the conserved structural motif identical to Quicklase (247-264). […] The cDNA of AEP_C13C04 was then subsequently synthesized and subcloned into pet28b in a similar way as Quicklase.

OaAEP1 [2] = assay: Trans-activation of inactive mutants by wild type OaAEP1; type: biochemical, Oldenlandia affinis
From the text: (a) Schematic illustration of the His-Ub-OaAEP1 construct used with the boundaries of the three regions of the protein indicated and the deduced activation segment. 6-His tag and Ubiquitin tag followed by OaAEP1 (24-474) was synthesized and inserted into pET28b vector. After Ni-NTA affinity purification, about half of Ub-AEP-FL lost the N-terminal fusion tags and was purified in AEP-FL form (53-474), which was eventually crystallized. The enzymatic active form of OaAEP1b, AEP-holo (53-347/351) is the acidic induced self-cleavage product of AEP-FL, which lost the C-terminal auto inhibitory cap domain. (b) SDS PAGE analysis of fractions obtained over the course of chromatographic purification and of dissolved crystals. (c) Size-exclusion chromatography profiles of OaAEP1 before and after activation showing Ub-AEP-FL and AEP-FL heterodimer and the AEP-holo monomer. The elution volumes of standard proteins are indicated for comparison. (d) SDS PAGE analysis of OaAEP1 pH-dependent activation. The activation was performed for 3 hours, and the peak of activation is in between pH 3.4 to 4.
OaAEP1 was cloned and expressed in E. coli as an ubiquitin fusion protein as reported earlier (FIG. 2) (Harris, K. S., et al., Nat Commun, 2015. 6: p. 10199). Using ion exchange and size exclusion chromatography (SEC), sufficient amounts of pure protein suitable for enzymatic and structural analysis were obtained (FIG. 2B). […]
Since the crystallization conditions are compatible with OaAEP1 activation, the present crystal structure is likely to have captured one of the conformational states occurring along the activation pathway. […] The role of Gln347 in OaAEP1 auto-activation was particularly assessed by mutating this residue to Ala, and whether enzyme activation was abolished was examined. […]

OaAEP1 [3] = assay: Self-activation (acid-induced self-cleavage) of OaAEP1 and mutants, SDS PAGE; type: biochemical, Oldenlandia affinis; details: for self-activation (auto-activation): acidic pH
Description: To self-activate OaAEP1, 1 mM EDTA and 0.5 mM Tris (2-carboxyethyl) phosphine hydrochloride were added to the immature protein and the pH of the solution was adjusted to 4 with glacial acetic acid. Fractions containing the protein (as analyzed by SDS-PAGE) were pooled and then incubated for 3 to 16 hours at room temperature or 37° C. Protein precipitation at this pH allowed removal of the bulk of the contaminating proteins by centrifugation. Activated proteins were concentrated by ultracentrifugation using a 50 kDa cutoff concentrator (Sartorius) and stored at −80° C.
OaAEP1 was cloned and expressed in E. coli as an ubiquitin fusion protein as reported earlier (FIG. 2) (Harris, K. S., et al., Nat Commun, 2015. 6: p. 10199). Using ion exchange and size exclusion chromatography (SEC), sufficient amounts of pure protein suitable for enzymatic and structural analysis were obtained (FIG. 2B). At the neutral pH of purification (pH=7.4), OaAEP1 was mainly present as a heterodimer, where both monomers are in their zymogenic form, but only one monomer had retained in addition the ubiquitin and N-terminal His-tag, while the fusion moiety was cleaved in the other monomer (labeled as “His-Ub-AEP-FL” and “AEP-FL” in FIG. 2B and FIG. 2C). This heterodimer was subjected to crystallization trials for structural studies (see below). In agreement with reference (Harris, K. S., et al., Nat Commun, 2015. 6: p. 10199), activation of OaAEP1 was optimum for pH values in the range of 3.4-4.0 (FIG. 2D). Following activation, OaAEP1 converts to a monomer in solution according to SEC analysis (“AEP-holo” in FIG. 2C). To test the ability of the protein to be activated in trans, the catalytic residue Cys217 was mutated into Ser217.
Since the crystallization conditions are compatible with OaAEP1 activation, the present crystal structure is likely to have captured one of the conformational states occurring along the activation pathway. To determine whether Gln347 belongs to the segment recognized and cleaved during self-activation, mutagenesis experiments targeting region 346-351 of the OaAEP1 protein were performed (FIG. 4C). The role of Gln347 in OaAEP1 auto-activation was particularly assessed by mutating this residue to Ala, and whether enzyme activation was abolished was examined. Only little impact was found on the mutant enzyme activation (FIG. 4C). Residues Asn346, Asp349 and Asp351 that are next to Gln347 were then targeted. […] Thus, trans-activation requires the presence of at least one of the four Asx/Gln residues (with a slight preference for Asp349 or Asp351) found in this segment of the linker.

peptide substrate = assay: Comparison of cyclization efficiency of gate-keeper Cys247 mutants (MALDI-TOF MS); type: biochemical
Description: Native and modified amino acids were purchased from Sigma-Aldrich (USA). All peptides used in this manuscript were synthesized in-house using the solid-phase method and HPLC purified. Cyclization assays were performed in 50-μl reaction mixtures containing 20 mM phosphate buffer, ligases (5 to 700 nM) and peptide substrates (10 to 300 μM). Each reaction was performed in triplicate at 37° C. and quenched by adding 5 μl of 1 M HCl solution. The peptides were separated by using a reversed-phase C18 analytical column (150×2.1 mm, Vydac) with a linear gradient from 10% to 50% acetonitrile over 15 min on a Nexera UHPLC system (Shimadzu). For kinetic analysis, the concentrations of WT OaAEP1, mutant OaAEP1, and butelase 1 were fixed at 700 nM, 50 nM, and 20 nM, respectively. The cyclization velocities were calculated by converting the HPLC-peak areas of remained linear precursors or the cyclized products into concentrations. The identity of each HPLC peak was analyzed by MALDI-TOF MS (ABI 4800 MALDI TOF/TOF). The velocities were input into GraphPad Prism (GraphPad Software, San Diego) to obtain the Michaelis-Menten curve and the kinetic parameters (kcat and Km). Comparison for the cyclization efficiency of various OaAEP1 mutants were performed in a volume of 20 μl of the reaction mixture and analyzed by MALDI-TOF MS after 10 mins or 1 hour ligation reaction.
The pre-ligation conformation of OaAEP1 captured in the present structure was then analyzed to identify several key features that could differentiate an AEP protease from an AEP-like ligase. […] In contrast to AEP proteases, the surface of OaAEP1 facing the catalytic Cys217 appears to be more widely open. Three cysteine residues (Cys247, Cys250, Cys264) are aligned along a shallow cleft at the surface of the enzyme (FIGS. 3C and 3E). Unlike the surface of AEP proteases that contains several bulges, both butelase 1 (using a homology model based on OaAEP1b) and OaAEP1 have residues with smaller side-chains along this patch. A disulfide bond is formed between Cys250 and Cys264, which are conserved in AEP-like ligases butelase 1 and OaAEP1b. This covalent bond is likely to stabilize the local structure and provide an adequate surface allowing the approach of an N-terminal amine incoming group. Conversely, the corresponding surface patch of AEP proteases (PDB: 4AWA) is lined with residues having bulky side-chains like Tyr (FIG. 3E) blocking this channel. It was therefore hypothesized that residue Cys247 which is located at the extremity of the substrate channel is likely to function as a final nucleophile filter (or “gate-keeper”), allowing attack from the N-terminal amine to complete the ligation reaction. […]

B1: AEP_C13C04: Peptidase C13, legumain [OMO86616.1] from Corchorus olitorius, SEQ ID NO:8 (protein, listed as Corchorus olitorius)
chain: MTRLVAGVILLLLSVTGIASAGRDATGDVLRLPSEASRFFRPSDDDEVGTRWAVLIAGSNGYWNYRHQADVCHAYQLLKKGGLKDENIIVFMYDDIAFNYENPRQGIIINSPHGDDVYQDVPKDYTGEEVTVHNFLAAILGNKTAIKGGSGKVVDSGPNDHIFIYYTDHGGPGVLGMPTYPYLYADELIDTLKKKHASGTYKSLVFYLEACESGSIFEGLLPEGLNIYATTASNADESSWGTYCPGEYPSPPPEYETCLGDLYSVAWMEDSDLHNLRTETLHQQYELVKRRTLNGNSAYGSHVMQYGDVGLAKEHLFLYLGTNPANDNFTFIDENSLQPPAKAVNQRDADLVHFWDKYRKAPDGSVRKVEAQKQVVEAMSHRMHVDNSIQLIGKLLFGIERGADVLKTVRPAGQPLVDDWKCLKSMVRTFETHCGSLAQYGMKHMRSIANICNAGIQTEQMAEASSQACVSIPSGQWSSIQKGFSA
- byproducts [1]: significant byproducts of proteolytic reactions
- proteolytic and protein ligation activities [1]: exhibited both proteolytic and protein ligation activities
- proteolytic and protein ligation activities ([1]; listed as AEP_C13CO4): is a peptide ligase having the activity of OaAEP1 Cys247Ala
- enzymatic catalytic efficiency compared with Quicklase ([1]; wild type AEP_C13C04): much slower

B2: Cys217Ser (protein)
chain: MVRYLAGAVLLLVVLSVAAAVSGARDGDYLHLPSEVSRFFRPQETNDDHGEDSVGTRWAVLIAGSKGYANYRHQAGVCHAYQILKRGGLKDENIVVFMYDDIAYNESNPRPGVIINSPHGSDVYAGVPKDYTGEEVNAKNFLAAILGNKSAITGGSGKVVDSGPNDHIFIYYTDHGAAGVIGMPSKPYLYADELNDALKKKHASGTYKSLVFYLEASESGSMFEGILPEDLNIYALTSTNTTESSWCYYCPAQENPPPPEYNVCLGDLFSVAWLEDSDVQNSWYETLNQQYHHVDKRISHASHATQYGNLKLGEEGLFVYMGSNPANDNYTSLDGNALTPSSIVVNQRDADLLHLWEKFRKAPEGSARKEEAQTQIFKAMSHRVHIDSSIKLIGKLLFGIEKCTEILNAVRPAGQPLVDDWACLRSLVGTFETHCGSLSEYGMRHTRTIANICNAGISEEQMAEAASQACASIP
- activation in trans by wild type OaAEP1 (OaAEP1 [2]): could be rescued in trans by addition of only 10% of wild type OaAEP1
- activation and ligase activity of active site mutant (OaAEP1 [3]): only displayed background level activation and ligase activity

B3: Cys217Ala (protein)
chain: B2 chain with S217A
- activation in trans by wild type OaAEP1 (OaAEP1 [2]): trans-cleavage and activation of most of the AEP-FL Cys217Ala after 18 hours
- self-activation (auto-activation) (OaAEP1 [3]): devoid of self-activation activity

B4: Asp349Ala-Asp351Ala (protein)
chain: B2 chain with S217C, D349A, D351A
- self-activation (auto-activation) (OaAEP1 [3]): can still be activated

B5: Asn346Ala-Asp349Ala-Asp351Ala (protein)
chain: B2 chain with S217C, N346A, D349A, D351A
- self-activation (auto-activation) (OaAEP1 [3]): can still be activated
- self-activation (auto-activation) (OaAEP1 [3]; listed as A3): more severe loss of function phenotype

B6: Cys247Gly: OaAEP1 gate-keeper mutant Cys247 to Gly (protein)
chain: B2 chain with S217C, C247G
- alternative reaction when N-terminal amine is not available (peptide substrate; N-terminal amine group acetylated): catalyzes peptide hydrolysis as alternative reaction
- ligase activity compared to WT OaAEP1 (peptide substrate; gate-keeper position 247 mutants): negatively affects the ligase activity

B7: Asn346Ala-Gln347Ala-Asp349Ala-Asp351Ala (protein)
chain: B2 chain with S217C, N346A, Q347A, D349A, D351A
- activation in trans by wild type OaAEP1 (OaAEP1 [2]): could not be rescued in trans
- self-activation (auto-activation) (OaAEP1 [3]): most significantly impaired auto-activation activity
- self-activation (auto-activation) (OaAEP1 [3]; listed as A4): more severe loss of function phenotype

B8: Asn346Ala-Gln347Ala (protein)
chain: B2 chain with S217C, N346A, Q347A
- self-activation (auto-activation) (OaAEP1 [3]): can still be activated
